Two molecules from patent publication US20210061893A1 can be followed below.

Where no end group is shown, it is not given here.

Test [1] addresses phoenixin binding sites on rat pituitary adenoma cells, RC-4B/C (rat). Nature of the test: displacement of 50 pM 125I-Y0-Phoenixin-20 amide from RC-4B/C cells, gamma counting.
The target in test [2] is antibodies raised to …-NH2 (SEQ. ID NO: 7). In words: RIA or EIA, competitive immunoassay with antibodies raised to SEQ ID NO: 7; standard peptide not named.

What is called IC50 is the midpoint of a concentration-inhibition curve. As to DVQPPGLKVWSDPF-NH2 [phoenixin-14 amide, …-NH2], the IC50 in test [1] was 17.9 nM.
By EC50 is commonly meant the concentration that produces a half-maximal response. As for AGIVQEDVQPPGLKVWSDPF-NH2 [Phoenixin-20 amide, …-NH2], the IC50 in test [1] came out at 21.5 nM. In test [2], this molecule showed an EC50 of 0.2 ng/mL.
